The source of these data is patent US20190338048A1.

The first assay deals with Pertuzumab kappa light chain V133D (L2), N-terminal HA tag. As to the kind of experiment: LCCA, SPR of light chain tags.
“Pertuzumab Fab heavy chain L143S_S186K_S188T (H2), ABD2-His6 tagged”: the H2L2:H2L1 normalized median ratio was found to be 63% and the H2L2:H2L1 normalized median scalar value ln(r1/f1) was found to be 0.54.

A further assay has the same target. As to the kind of experiment: LCCA, SPR of light chain tags. The source holds these as a separate data set.
Take “Pertuzumab Fab heavy chain L143S_S186K_S188T (H2), ABD2-His6 tagged”: the H2L2:H2L1 normalized median ratio came out at 64% and the H2L2:H2L1 normalized median scalar value ln(r1/f1) is 0.58.

In the next assay the target is Recombinant human IL-17A (human) (UniProt Q16552). As to the kind of experiment: SPR, ProteOn XPR36. In general terms: Surface plasmon resonance follows binding to a sensor surface in real time, without labels.
By Kd is commonly meant the constant that tells how readily two partners part at equilibrium. With “CAT-2200 Fab heterodimer H1L1 with H1 K145T_V177D_S188D and L1 S176K_Y178R”, the Change in KD of H1L1 Fab vs wild type, -(log(KD design)-log(KD wt)) worked out at 0.01 and the Kd amounted to 0.27 nM. For “CAT-2200 Fab heterodimer H1L1 with H1 K145T_V177T_S188E and L1 Y178K” the same measures were 0.11 and 0.21 nM. Take “CAT-2200 Fab heterodimer, H1 V177I_S188K / L1 V133I_S176D_Y178E”: the Kd came out at 0.23 nM. For “CAT-2200 Fab heterodimer, H1 V177I_S188K / L1 V133L_S176D_Y178E”, the equilibrium dissociation constant (Kd) came out at 0.22 nM.

The target in another assay is Recombinant HER2 protein (HER2-ECD) (UniProt P04626). As to the kind of experiment: SPR.
For “Pertuzumab Fab heterodimer, H2 L45P_L143E_K145T_Q179E / L2 P44F_Q124R_T178R”, the Kd stood at 5.9 nM.

As for “Pertuzumab Fab heterodimer, H2 Q39E_L143E_K145T_Q179E / L2 Q38R_Q124R_T178R”, the Change in KD of H2L2 Fab vs wild type, -(log(KD design)-log(KD wt)) was found to be 0.023 and the Kd came out at 7.4 nM. Consider “Pertuzumab Fab with H2 L45P_L124R_Q179K and L2 P44F_V133G_S176D_T180E”, for which the Change in KD of H2L2 Fab vs wild type turned out to be 0.065 and the Kd came out at 6.7 nM. Turning to “Pertuzumab Fab with H2 Q39E_L124R_Q179K and L2 Q38R_V133G_S176D_T180E”, the Change in KD of H2L2 Fab vs wild type amounted to 0.016 and the Kd was 7.5 nM. As to “Pertuzumab Fab, H2 L45P_L143R / L2 P44F_Q124E_V133D”, the dissociation constant (Kd) was 5.9 nM. On to “Pertuzumab Fab, H2 Q39E_L143R / L2 Q38R_Q124E_V133D”, for which the Kd turned out to be 7.5 nM.

In another assay the target is Recombinant human IL-17A (human) (UniProt Q16552). As to the kind of experiment: SPR.
As for “CAT-2200 Fab heterodimer (H1L1) with H1 K145T_V177D_S188D and L1 S176K_Y178K”, the Kd was determined as 0.27 nM. Regarding “CAT-2200 Fab heterodimer (H1L1) with H1 K145T_V177D_S188D and L1 S176K_Y178R”, the Kd is 0.27 nM. Turning to “CAT-2200 Fab heterodimer (H1L1) with H1 L143K and L1 K129T_V133D”, the Change in KD of H1L1 Fab vs wild type, -(log(KD design)-log(KD wt)) came out at 0.03 and the Kd was 0.26 nM.

Consider “CAT-2200 Fab heterodimer H1 L143E_K145T_Q179E / L1 E124Q_T131R”, for which the Change in KD of H1L1 Fab vs wild type was -0.03 and the Kd was 0.29 nM. For “CAT-2200 Fab heterodimer H1 L143K / L1 K129T_V133D” the same measures were 0.03 and 0.26 nM.

For “CAT-2200 Fab heterodimer H1L1 of design 10652-10755 (H1 L143E_K145T, L1 E124R)”, the Kd was determined as 0.28 nM.

“CAT-2200 Fab heterodimer H1L1 with H1 F174G and L1 T116F_S176F”: the Change in KD of H1L1 Fab vs wild type amounted to 0.08 and the Kd came out at 0.23 nM. The corresponding values for “CAT-2200 Fab heterodimer H1L1 with H1 K145T_S188E and L1 Y178K” are -0.1 and 0.34 nM.

As to “CAT-2200 Fab heterodimer H1L1 with H1 K145T_V177D_S188D and L1 S176K_Y178K”, the Change in KD of H1L1 Fab vs wild type was determined as 0 and the Kd worked out at 0.27 nM. Take “CAT-2200 Fab heterodimer H1L1 with H1 L143D_K145T and L1 E124Q_T131K”: the Change in KD of H1L1 Fab vs wild type was determined as 0.1 and the Kd came out at 0.22 nM. In the case of “CAT-2200 Fab heterodimer H1L1 with H1 L143D_K145T and L1 E124Q_T131K_V133S”, the Change in KD of H1L1 Fab vs wild type was -0.08 and the Kd stood at 0.33 nM. As for “CAT-2200 Fab heterodimer H1L1 with H1 L143D_K145T and L1 E124Q_T131R”, the Change in KD of H1L1 Fab vs wild type is -0.1 and the Kd turned out to be 0.35 nM. For the substance “CAT-2200 Fab heterodimer H1L1 with H1 L143E_K145T_Q179E and L1 E124Q_T131R”, the Change in KD of H1L1 Fab vs wild type, -(log(KD design)-log(KD wt)) is -0.03 and the dissociation constant Kd was determined as 0.29 nM.

As for “CAT-2200 Fab heterodimer H1L1 with H1 S186R and L1 K129T_S180E”, the Change in KD of H1L1 Fab vs wild type, -(log(KD design)-log(KD wt)) was found to be 0.03 and the Kd amounted to 0.26 nM. For “CAT-2200 Fab heterodimer H1L1 with H1 V177I_S188K and L1 V133L_S176D_Y178E (Kabat)”, the Kd is 0.22 nM. On to “CAT-2200 Fab heterodimer H1L1 without pairing substitutions (H1L1 of Mab design sets 10771-11335 and 10771-11360)”, for which the Change in KD of H1L1 Fab vs wild type, -(log(KD design)-log(KD wt)) is 0.

Turning to “CAT-2200 Fab heterodimer H1L1 without pairing substitutions (wild-type H1 and L1)”, the Change in KD of H1L1 Fab vs wild type, -(log(KD design)-log(KD wt)) worked out at 0. Take “CAT-2200 Fab heterodimer, H1 S186R / L1 K129T_S180E”: the Change in KD of H1L1 Fab vs wild type, -(log(KD design)-log(KD wt)) was -0.088 and the Kd was found to be 0.26 nM.

On to “CAT-2200 Fab heterodimer, H1 S188K / L1 S176E_Y178E”, for which the Change in KD of H1L1 Fab vs wild type, -(log(KD design)-log(KD wt)) is -0.24 and the Kd came to 0.36 nM. As for “CAT-2200 Fab heterodimer, H1 V177I_S188K / L1 V133I_S176D_Y178E”, the Change in KD of H1L1 Fab vs wild type is 0.08. The same measure, in the same setting: as for “CAT-2200 Fab heterodimer, H1 V177I_S188K / L1 V133L_S176D_Y178E”, the figure is 0.08. For the substance “CAT-2200 Fab with H1 K145T_S188E and L1 Y178K”, the Change in KD of H1L1 Fab vs wild type is -0.22 and the Kd was 0.34 nM.

Turning to “CAT-2200 Fab, H1 A125R_S186R / L1 S122D_K129T_S180E”, the Change in KD of H1L1 Fab vs wild type, -(log(KD design)-log(KD wt)) was -0.0041 log(KD) and the Kd came to 0.21 nM. Regarding CAT-2200 Fab, H1 K145T_S188E / L1 Y178K, the Change in KD of H1L1 Fab vs wild type was -0.22 and the dissociation constant Kd was 0.34 nM. With “CAT-2200 Fab, H1 L143D_K145T / L1 E124Q_T131R”, the Change in KD of H1L1 Fab vs wild type was -0.22 and the dissociation constant Kd is 0.35 nM. With “CAT-2200 designed Fab heterodimer, H1 K145T_S188E / L1 Y178K”, the Change in KD of H1L1 Fab vs wild type, -(log(KD design)-log(KD wt)) is -0.22 and the Kd was found to be 0.34 nM. Take “CAT-2200 designed Fab heterodimer, H1 L143D_K145T / L1 E124Q_T131K_V133S”: the Change in KD of H1L1 Fab vs wild type, -(log(KD design)-log(KD wt)) was -0.19 and the Kd worked out at 0.33 nM. Regarding “CAT-2200 designed Fab heterodimer, H1 Q179K / L1 K129T_S180E”, the Change in KD of H1L1 Fab vs wild type, -(log(KD design)-log(KD wt)) is -0.056 and the Kd was 0.24 nM.

As to “CAT-2200 designed Fab heterodimer, H1 S186R / L1 K129T_S180E”, the Change in KD of H1L1 Fab vs wild type, -(log(KD design)-log(KD wt)) was -0.088 and the Kd turned out to be 0.26 nM.

“CAT-2200 designed Fab, H1 A125R_S186R / L1 S122D_K129T_S180E”: the Change in KD of H1L1 Fab vs wild type is -0.0041 and the Kd was found to be 0.21 nM.

For the next assay the target is unchanged. As to the kind of experiment: SPR as for KD.
Turning to “CAT-2200 Fab, H1 L124E_V190D / L1 L135K_Y178F”, the Change in KD of H1L1 Fab vs wild type, -(log(KD design)-log(KD wt)) was -3.56 log units.

“CAT-2200 Fab, H1 L124E_V190D / L1 V133I_L135K”: the Change in KD of H1L1 Fab vs wild type, -(log(KD design)-log(KD wt)) is -3.56 log units.
